In patent US20140057807A1 (UNIVERSITY OF CHICAGO, published 2014):

How the values were obtained:
human Abl SH2 domain = biological target: T1, human Abl SH2 domain (human, UniProt P00519 112-232, limits assumed); assay: phage display selection hit, BL2 library
T1 construct: domain: SH2 domain; poly-histidine tagged in selection; tag cleaved for SPR and crystals; also called Ab1SH2; SH2 domain of Abl kinase
T1 sequence (looked up): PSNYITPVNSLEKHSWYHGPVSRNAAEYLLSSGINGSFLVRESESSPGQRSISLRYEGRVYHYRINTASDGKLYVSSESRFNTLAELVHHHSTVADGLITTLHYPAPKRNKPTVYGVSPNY

[1] = biological target: T2, yeast small ubiquitin-like modifier protein (yeast, UniProt Q12306 3-98 = SUMO); assay: SPR
T2 construct: GST fusion in most phage ELISAs, His-tagged or tag-cleaved elsewhere; also called ySUMO; yeast SUMO
T2 sequence (Q12306 3-98 limits assumed): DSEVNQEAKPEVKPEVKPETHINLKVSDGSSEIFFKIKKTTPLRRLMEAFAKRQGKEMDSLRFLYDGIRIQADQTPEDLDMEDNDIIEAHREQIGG
Method: (§1) Cradle molecules purified as described above were immobilized via His-tag to an NTA surface using a Biacore™ 2000 instrument so that the theoretical maximum response (Rₘₐₓ) from target binding was 100-200 RU. Target protein at varying concentrations was then flowed over the surface at a flow rate of 30 μL/min and the binding signal recorded. Fitting of kinetic traces was carried out using the BIAevaluation software. For equilibrium experiments, the equilibrium binding response was recorded for multiple target concentrations and fit to a simple 1:1 saturation binding curve.

[2] = biological target: T2, yeast small ubiquitin-like modifier …; assay: SPR; column 'Estimated Kd (nM)'
Method in brief: (§2)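 Purified His-tagged molecules were captured on an NTA surface of a Biacore 2000 to reach a theoretical maximum target response of 100-200 RU, and target at varying concentrations was flowed at 30 μL/min. Estimated Kd values come from surface plasmon resonance binding signals, analysed either by kinetic fitting in BIAevaluation software or by fitting equilibrium responses to a saturation binding curve with 1:1 binding.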

[3] = biological target: T2, yeast small ubiquitin-like modifier …; assay: SPR (monobody on the chip via His-tag, target flowed); estimated Kd
Method: as §1

[4] = biological target: T2, yeast small ubiquitin-like modifier …; assay: SPR (Biacore 2000), monobody immobilised via His-tag on NTA surface, ySUMO flowed over it
Method: as §1

[5] = biological target: T2, yeast small ubiquitin-like modifier …; assay: titration phage ELISA
Method: hSUMO1-binding cradle molecules had varied ability to discriminate hSUMO1 and ySUMO as assessed by phage ELISA (FIGS. 25A and 26A).
For phage amplification, E. coli XL1-Blue cells transformed with the LacI containing plasmid pMCSG21 (Stols, et al., Protein Express. Purif. (2007) 53:396-403) (termed “XL21” hereafter) were used. Cradle molecule displaying phage were prepared by growing XL21 cells transfected with phagemid of individual clones in the presence of 0.2 mM IPTG and helper phage K07 (Koide, A., and Koide, S., supra, 2007; Sidhu, et al., supra, 2000). Cultures were then centrifuged and phage containing supernatant used for ELISA assays. All incubations were at room temperature. In all instances except for the phage titration experiment used to test hSUMO1-binding cradle molecule specificity (FIG. 26), wells of a 96-well Microlon© (Greiner) ELISA plate were treated with a 2 μg/mL solution of a GST-fusion of the appropriate target protein, or GST alone in 50 mM Tris Cl buffer containing 150 mM NaCl, pH 7.5 (TBS) and incubated for 1 hour followed by blocking with 0.5% BSA in TBS for 1 hour.

[6] = biological target: T2, yeast small ubiquitin-like modifier …; assay: SPR, fit of the traces to a 1:1 binding model [panel D]
Method: as §1

[7] = biological target: T2, yeast small ubiquitin-like modifier …; assay: SPR; remark: listed apart in the source
Excerpt: Such high selectivity was unexpected, because the SIM-binding site is the most highly conserved surface between ySUMO and hSUMO proteins (FIG. 16A). […] Thus, it was expected that generating FnIII domain variants that bind to hSUMOs in a mode similar to the ySUMO-binding FnIII domain variants would yield clones with higher isoform selectivity toward hSUMOs.
as §1

[8] = biological target: T2, yeast small ubiquitin-like modifier …; assay: titration phage ELISA: His-tagged target captured via BT-Tris-NTA on NeutrAvidin-coated wells, serial 5-fold dilutions of phage supernatant
Method in brief: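 Phage ELISA with phage-containing supernatant from XL21 cells grown with 0.2 mM IPTG and helper phage K07. His-tagged target (50 nM) was complexed with BT-Tris NTA on NeutrAvidin-coated, BSA-blocked wells for 30 minutes. A 30% phage supernatant and serial 5-fold dilutions in TBS/0.5% BSA were incubated for 30 minutes at room temperature. Detection used anti-M13-HRP and TMB, quenched with H₂SO₄, with absorbance at 450 nm scaled to 1 cm path-length.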

[9] = biological target: T2, yeast small ubiquitin-like modifier …; assay: SPR; column 'Estimated Kd (nM)' [Continued]
Method in brief: as §2

B1: SEQ ID NO 82 (designed binder)
chain: VSSVPTKLEVVAATPTSLLISWDAPAVTVDFYVITYGETGGNSPVQEFTVPGSKSTATISGLSPGVDYTITVYANWAYSYRYSPISINYRT
binding result (human Abl SH2 domain): binds

B2: SEQ ID NO 84 (designed binder)
chain: VSSVPTKLEVVAATPTSLLISWDAPAVTVDYYLITYGETGGNSPVQEFTVPGSKSTATISGLSPGVDYTITVYAWDPYWDVMSPISINYRT
binding result (human Abl SH2 domain): binds

B3: SEQ ID NO 83 (designed binder)
chain: VSSVPTKLEVVAATPTSLLISWDAPAVTVFYYVITYGETGGNSPVQEFEVPGSKSTATISGLSPGVDYTITVYANYPYSYMYSPISINYRT
binding result (human Abl SH2 domain): binds

B4: ySMB-8 (designed binder)
chain: VSSVPTKLEVVAATPTSLLISWDAYVGYGSSVAYYRITYGETGGNSPVQEFTVPGSSSTATISGLSPGVDYTITVYAYYYEGDDLYSSMSPISINYRT
notes: variable loops only; library YSGW
Kd [1]: 350 nM | Kd [2]: 350 nM

B5: SEQ ID NO 85 (designed binder)
chain: VSSVPTKLEVVAATPTSLLISWDAPAVTVDLYVITYGETGGNSPVQEFTVPGSKSTATISGLSPGVDYTITVYAGWGNWELGYSWSSPISINYRT
binding result (human Abl SH2 domain): binds

B6: SEQ ID NO 81 (designed binder)
chain: VSSVPTKLEVVAATPTSLLISWDAPAVTVDLYLITYGETGGNSPVQEFKVPGSKSTATISGLSPGVDYTITVYAGSDYYYYYQGAYWSPISINYRT
binding result (human Abl SH2 domain): binds

B7: ySMB-4 (designed binder)
chain: VSSVPTKLEVVAATPTSLLISWDAPWAYSQSVAYYRITYGETGGNSPVQEFTVPGSSSTATISGLSPGVDYTITVYAYYGTPWGEGWYSWSPISINYRT
notes: as for B4
Kd [1]: 210 nM | Kd [2]: 210 nM

B8: Clone# 5 (ySUMO Monobodies) (designed binder)
chain: VSSVPTKLEVVAATPTSLLISWDASSSSVSYYRITYGETGGNSPVQEFTVPGSSSTATISGLSPGVDYTITVYAYYSYYNIFFADSPSSINYRT
notes: recovered against ySUMO from the SUMO-targeted library
Kd [3]: 112 nM

B9: ySMB-ST1 (designed binder)
chain: VSSVPTKLEVVAATPTSLLISWDASSSSVSYYRITYGETGGNSPVQEFTVPGSSSTATISGLSPGVDYTITVYAYYSYYDIYYAVSPSSINYRT
Kd [4]: 39 nM

B10: hS1MB-23 (designed binder)
chain: VSSVPTKLEVVAATPTSLLISWDASSSSVSHYEITYGETGGNSPVQEFTVPGSSSTATISGLSPGVDYTITVYAYYSHDDIFYAFSPSSINYRT
fold weaker binding to ySUMO than to hSUMO1 [5]: ≥ 100 fold

B11: ySMB-2 (designed binder)
chain: VSSVPTKLEVVAATPTSLLISWDASSSSVSYYRITYGETGGNSPVQEFTVPGSSSTATISGLSPGVDYTITVYAYWTYEWGYMYDSPISINYRT
Kd [1]: 45 nM | Kd [2]: 45 nM | koff [6]: 0.04 s⁻¹ | kon [6]: 970000 M⁻¹ s⁻¹

B12: hS1MB-16 (designed binder)
chain: VSSVPTKLEVVAATPTSLLISWDASSSSVSHYDITYGETGGNSPVQEFTVPGSSSTATISGLSPGVDYTITVYAYNSHDDIFIAYSPSSINYRT
fold weaker binding to ySUMO than to hSUMO1 [5]: ≥ 100 fold

B13: ySMB-ST3 (designed binder)
chain: VSSVPTKLEVVAATPTSLLISWDASSSSVSYYRITYGETGGNSPVQEFTVPGSSSTATISGLSPGVDYTITVFAYYSEEFFDYAYSPSSINYRT
Kd [4]: 435 nM

B14: ySMB-6 (designed binder)
chain: VSSVPTKLEVVAATPTSLLISWDASSSSVSYYRITYGETGGNSPVQEFTVPSYSSTATISGLSPGVDYTITVYAYWEFEYGYWSYSPISINYRT
notes: as for B4
Kd [1]: 166 nM | Kd [2]: 166 nM

B15: ySMB-1 (designed binder)
chain: VSSVPTKLEVVAATPTSLLISWDASSSSVSYYRITYGETGGNSPVQEFTVPGSSSTATISGLSPGVDYTITVYAYYSYYDLYYSYSPSSINYRT
notes: it may hold only the diversified positions and not the whole FnIII domain; BC and DE loops are polyserine; also called monobody ySMB-1; FnIII domain variant ySMB-1
Kd [7]: 82 nM | koff [6]: 0.09 s⁻¹ | kon [6]: 1.1e+06 M⁻¹ s⁻¹ | Kd [3]: 72 nM | Kd [4]: 72 nM

B16: ySMB-ST5 (designed binder)
chain: VSSVPTKLEVVAATPTSLLISWDASSSSVSYYRITYGETGGNSPVQEFTVPGSSSTATISGLSPGVDYTITVYAYYSYYNIFFADSPSSINYRT
Kd [4]: 112 nM

B17: ySMB-7 (designed binder)
chain: VSSVPTKLEVVAATPTSLLISWDASSSSVSYYRITYGETGGNSPVQEFTVPGSSSTATISGLSPGVDYTITVYAYQEWSYGWSSESPISINYRT
notes: as for B4
Kd [1]: 800 nM | Kd [2]: 800 nM

B18: hS1MB-7 (designed binder)
chain: VSSVPTKLEVVAATPTSLLISWDASSSSVSYYEITYGETGGNSPVQEFTVPGSSSTATISGLSPGVDYTITVIAFYSHDDIYISDSPSSINYRT
fold weaker binding to ySUMO than to hSUMO1 [5]: ≥ 100 fold | binding result [8]: no binding

B19: ySMB-ST4 (designed binder)
chain: VSSVPTKLEVVAATPTSLLISWDASSSSVSYYRITYGETGGNSPVQEFTVPGSSSTATISGLSPGVDYTITVYAYYSDDFLDFAFSPSSINYRT
Kd [4]: 3300 nM

B20: ySMB-ST2 (designed binder)
chain: VSSVPTKLEVVAATPTSLLISWDASSSSVSYYRITYGETGGNSPVQEFTVPGSSSTATISGLSPGVDYTITVYAYYSEEFFDYAVSPSSINYRT
Kd [4]: 194 nM

B21: GG3 (designed binder)
chain: VSSVPTKLEVVAATPTSLLISWDAPAVTVVHYVITYGETGGNSPVQEFTVPGSKSTATISGLSPGVDYTITVYALLSSSHWVYESPISINYRT
binding result (human Abl SH2 domain): binds

B22: ySMB-5 (designed binder)
chain: VSSVPTKLEVVAATPTSLLISWDAPANSVSYYRITYGETGGNSPVQEFTVPGSSSTATISGLSPGVDYTITVYAYEWYGWGWTYSPISINYRT
notes: as for B4
Kd [1]: 100 nM | Kd [2]: 100 nM

B23: ySMB-54 (designed binder)
chain: VSSVPTKLEVVAATPTSLLISWDAGYDESVMYYRITYGETGGNSPVQEFTVPGSSSTATISGLSPGVDYTITVYAYREYDGLYYSYSPISINYRT
notes: as for B4
Kd [9]: 950 nM

B24: ySMB-53 (designed binder)
chain: VSSVPTKLEVVAATPTSLLISWDASSSSVSYYRITYGETGGNSPVQEFTVPGSSSTATISGLSPGVDYTITVYAYQSFGYNEYWSSGSPISINYRT
notes: as for B4
Kd [9]: 380 nM
